# Laboratory results as given in patent US20090053807A1 (Novo Nordisk A/S, priority 1998, published 2009).
# Key:
# [1] = target: insulin receptor construct transfected into 32D cells (Homo sapiens, UniProt P06213); assay: IR autophosphorylation assay in IR transfected 32D cells (ELISA); details: MBP fusion peptides, FIG. 30
# MCF-7 cells = assay: MCF-7 cell proliferation assay, agonist format; type: cell-based, human; details: MCF-7 and MiaPaCa cell proliferation (Tables 27-28)
Molecule,stimulation of autophosphorylation of IR [1],IGF-1R agonist activity (MCF-7 cells)
"H2C-9aa-H2C: MBP fusion, H2C dimer peptide with 9 amino acid linker (protein, left off: large carriers; small tags and cut ends) NNNNLGIEGRISEFIEGRAQPAMAFHENFYDWFVRQVSGGSGGSGGSFHENFYDWFVRQVSAAAGAPVPYPDPLEPRAA",active,–
D112-12-RP30-IGF: dimer peptide (Site 1-Site 1) (peptide) ADYKDCWARPCGDAANFYDWFVQQASKKGGSGGSGGSGGSSFYSCLESLVNGGAERSDGQWEGCRAAAGAPVPYPDPLEPRPG,–,IGF-1R agonist activity
"H2C-3aa-H2C: MBP fusion, H2C dimer peptide (Site 1-Site 1) with 3 amino acid linker (protein, left off: large carriers; small tags and cut ends) NNNNLGIEGRISEFIEGRAQPAMAFHENFYDWFVRQVSGGSFHENFYDWFVRQVSAAAGAPVPYPDPLEPRAA",active,–
RP30-IGF-12-D112: dimer peptide (Site 1-Site 1) (peptide) ADYKDSFYSCLESLVNGGAERSDGQWEGCRGGSGGSGGSGGSCWARPCGDAANFYDWFVQQASKKAAAGAPVPYPDPLEPRPG,–,IGF-1R agonist activity
